± gives the uncertainty stated by the source.
Experiment: abundance fitness (aPCA) (normalised: wild type 0, dead -1); higher = more abundant; growth selection in yeast, the domain comes from the species named
Conditions: Homo sapiens
Substance “Transcription factor SOX-4 Y123H, Q06945” has an abundance fitness of -0.03 ± 0.12.
For Transcription factor SOX-4 R92M, Q06945, the abundance fitness was 0.128 ± 0.11.
In the case of “Transcription factor SOX-4 D125N, Q06945”, the abundance fitness is reported as -0.045 ± 0.22.
Transcription factor SOX-4 M78A, Q06945 showed an abundance fitness of -0.006 ± 0.058.
Work on Transcription factor SOX-4 R75K, Q06945 yielded an abundance fitness of 0.07 ± 0.046.
Work on Transcription factor SOX-4 K60R, Q06945 yielded an abundance fitness of -0.294 ± 0.066.

Same assay, conditions: Saccharomyces cerevisiae (strain ATCC 204508 / S288c)
Work on “E3 ubiquitin-protein ligase RSP5 H352A, P39940” yielded an abundance fitness of -0.236 ± 0.045.
For “E3 ubiquitin-protein ligase RSP5 Y348M, P39940”, the abundance fitness was -0.354 ± 0.092.
For “E3 ubiquitin-protein ligase RSP5 G345W, P39940”, the abundance fitness was -0.466 ± 0.049.
“E3 ubiquitin-protein ligase RSP5 N353L, P39940” showed an abundance fitness of -0.278 ± 0.044.
“E3 ubiquitin-protein ligase RSP5 L330N, P39940” gave an abundance fitness of 0.054 ± 0.08.
For “E3 ubiquitin-protein ligase RSP5 E344T, P39940”, the abundance fitness was -0.088 ± 0.051.
With “E3 ubiquitin-protein ligase RSP5 G336A, P39940” the abundance fitness was -0.447 ± 0.05.
Substance “E3 ubiquitin-protein ligase RSP5 D351H, P39940” has an abundance fitness of -0.574 ± 0.21.
“E3 ubiquitin-protein ligase RSP5 Q366G, P39940” showed an abundance fitness of 0.131 ± 0.064.
“E3 ubiquitin-protein ligase RSP5 R340V, P39940” gave an abundance fitness of 0.022 ± 0.049.
With “E3 ubiquitin-protein ligase RSP5 T326N, P39940” the abundance fitness was 0.105 ± 0.087.
Substance “E3 ubiquitin-protein ligase RSP5 F349V, P39940” has an abundance fitness of -0.739 ± 0.044.
“E3 ubiquitin-protein ligase RSP5 E338W, P39940” gave an abundance fitness of -0.978 ± 0.11.
“E3 ubiquitin-protein ligase RSP5 R340E, P39940” gave an abundance fitness of -0.01 ± 0.063.
Substance “E3 ubiquitin-protein ligase RSP5 R364P, P39940” has an abundance fitness of 0.072 ± 0.052.
With “E3 ubiquitin-protein ligase RSP5 Q365H, P39940” the abundance fitness was 0.167 ± 0.11.
Substance “E3 ubiquitin-protein ligase RSP5 A347E, P39940” has an abundance fitness of -0.034 ± 0.056.
Substance “E3 ubiquitin-protein ligase RSP5 V350C, P39940” has an abundance fitness of -0.097 ± 0.066.
In the case of “E3 ubiquitin-protein ligase RSP5 L333T, P39940”, the abundance fitness is reported as -0.572 ± 0.054.
“E3 ubiquitin-protein ligase RSP5 Y348A, P39940” showed an abundance fitness of -0.936 ± 0.073.
For “E3 ubiquitin-protein ligase RSP5 G324M, P39940”, the abundance fitness was 0.105 ± 0.12.
“E3 ubiquitin-protein ligase RSP5 Y348T, P39940” showed an abundance fitness of -0.686 ± 0.087.
Work on “E3 ubiquitin-protein ligase RSP5 P343C, P39940” yielded an abundance fitness of -0.147 ± 0.16.
Work on “E3 ubiquitin-protein ligase RSP5 V360L, P39940” yielded an abundance fitness of -0.03 ± 0.044.
Work on “E3 ubiquitin-protein ligase RSP5 G324A, P39940” yielded an abundance fitness of 0.004 ± 0.084.
Work on “E3 ubiquitin-protein ligase RSP5 R363E, P39940” yielded an abundance fitness of -0.443 ± 0.057.
For “E3 ubiquitin-protein ligase RSP5 T327L, P39940”, the abundance fitness was -0.049 ± 0.055.
Work on “E3 ubiquitin-protein ligase RSP5 W337Q, P39940” yielded an abundance fitness of -0.637 ± 0.11.
In the case of “E3 ubiquitin-protein ligase RSP5 P343I, P39940”, the abundance fitness is reported as 0.017 ± 0.099.
“E3 ubiquitin-protein ligase RSP5 G325L, P39940” gave an abundance fitness of 0.029 ± 0.11.
Work on “E3 ubiquitin-protein ligase RSP5 V360Y, P39940” yielded an abundance fitness of 0.194 ± 0.084.
For “E3 ubiquitin-protein ligase RSP5 R355M, P39940”, the abundance fitness was -0.065 ± 0.07.
With “E3 ubiquitin-protein ligase RSP5 L330D, P39940” the abundance fitness was 0.02 ± 0.065.
For “E3 ubiquitin-protein ligase RSP5 T326K, P39940”, the abundance fitness was 0.068 ± 0.051.
“E3 ubiquitin-protein ligase RSP5 E344H, P39940” gave an abundance fitness of 0.116 ± 0.16.
Work on “E3 ubiquitin-protein ligase RSP5 T327G, P39940” yielded an abundance fitness of -0.037 ± 0.046.
In the case of “E3 ubiquitin-protein ligase RSP5 T357I, P39940”, the abundance fitness is reported as -0.735 ± 0.17.
With “E3 ubiquitin-protein ligase RSP5 E338R, P39940” the abundance fitness was -0.626 ± 0.045.
In the case of “E3 ubiquitin-protein ligase RSP5 L333N, P39940”, the abundance fitness is reported as -0.627 ± 0.1.
For “E3 ubiquitin-protein ligase RSP5 T356K, P39940”, the abundance fitness was -0.225 ± 0.066.
With “E3 ubiquitin-protein ligase RSP5 R363H, P39940” the abundance fitness was -0.398 ± 0.066.
Work on “E3 ubiquitin-protein ligase RSP5 V360P, P39940” yielded an abundance fitness of -0.871 ± 0.061.
For “E3 ubiquitin-protein ligase RSP5 T357F, P39940”, the abundance fitness was -1.11 ± 0.28.
With “E3 ubiquitin-protein ligase RSP5 G329H, P39940” the abundance fitness was -0.046 ± 0.083.
With “E3 ubiquitin-protein ligase RSP5 N353P, P39940” the abundance fitness was -0.673 ± 0.065.
“E3 ubiquitin-protein ligase RSP5 V360W, P39940” gave an abundance fitness of -0.06 ± 0.069.
“E3 ubiquitin-protein ligase RSP5 S335V, P39940” gave an abundance fitness of -0.141 ± 0.051.
For “E3 ubiquitin-protein ligase RSP5 P343H, P39940”, the abundance fitness was 0.09 ± 0.082.
In the case of “E3 ubiquitin-protein ligase RSP5 L330H, P39940”, the abundance fitness is reported as -0.048 ± 0.067.
With “E3 ubiquitin-protein ligase RSP5 G329E, P39940” the abundance fitness was 0.096 ± 0.055.
With “E3 ubiquitin-protein ligase RSP5 R363G, P39940” the abundance fitness was -0.276 ± 0.041.
“E3 ubiquitin-protein ligase RSP5 R340P, P39940” gave an abundance fitness of -1 ± 0.063.
For “E3 ubiquitin-protein ligase RSP5 T357G, P39940”, the abundance fitness was -0.81 ± 0.047.
With “E3 ubiquitin-protein ligase RSP5 W337R, P39940” the abundance fitness was -0.771 ± 0.052.
In the case of “E3 ubiquitin-protein ligase RSP5 T358G, P39940”, the abundance fitness is reported as -0.535 ± 0.044.
“E3 ubiquitin-protein ligase RSP5 E332K, P39940” gave an abundance fitness of -0.046 ± 0.064.
Substance “E3 ubiquitin-protein ligase RSP5 G324R, P39940” has an abundance fitness of -0.099 ± 0.066.
“E3 ubiquitin-protein ligase RSP5 G325T, P39940” showed an abundance fitness of 0.071 ± 0.097.
With “E3 ubiquitin-protein ligase RSP5 D361C, P39940” the abundance fitness was -0.183 ± 0.1.
“E3 ubiquitin-protein ligase RSP5 G329Q, P39940” gave an abundance fitness of 0.18 ± 0.096.
For “E3 ubiquitin-protein ligase RSP5 T354W, P39940”, the abundance fitness was -0.658 ± 0.065.
With “E3 ubiquitin-protein ligase RSP5 S335P, P39940” the abundance fitness was 0.047 ± 0.38.
Substance “E3 ubiquitin-protein ligase RSP5 A347V, P39940” has an abundance fitness of -0.044 ± 0.046.
In the case of “E3 ubiquitin-protein ligase RSP5 Y348L, P39940”, the abundance fitness is reported as -0.504 ± 0.068.
Substance “E3 ubiquitin-protein ligase RSP5 G325R, P39940” has an abundance fitness of -0.063 ± 0.047.
For “E3 ubiquitin-protein ligase RSP5 R355Q, P39940”, the abundance fitness was -0.013 ± 0.069.
Substance “E3 ubiquitin-protein ligase RSP5 V360R, P39940” has an abundance fitness of -0.207 ± 0.041.
With “E3 ubiquitin-protein ligase RSP5 T356H, P39940” the abundance fitness was -0.483 ± 0.23.
Work on “E3 ubiquitin-protein ligase RSP5 A347N, P39940” yielded an abundance fitness of -0.034 ± 0.059.
With “E3 ubiquitin-protein ligase RSP5 G329P, P39940” the abundance fitness was -0.113 ± 0.052.
With “E3 ubiquitin-protein ligase RSP5 T326Q, P39940” the abundance fitness was -0.071 ± 0.057.
With “E3 ubiquitin-protein ligase RSP5 F349M, P39940” the abundance fitness was -0.662 ± 0.15.
For “E3 ubiquitin-protein ligase RSP5 L330W, P39940”, the abundance fitness was -0.161 ± 0.054.
“E3 ubiquitin-protein ligase RSP5 V350S, P39940” showed an abundance fitness of -0.502 ± 0.078.
Substance “E3 ubiquitin-protein ligase RSP5 T342D, P39940” has an abundance fitness of 0.173 ± 0.076.
“E3 ubiquitin-protein ligase RSP5 S335F, P39940” showed an abundance fitness of -0.205 ± 0.11.
For “E3 ubiquitin-protein ligase RSP5 F341V, P39940”, the abundance fitness was 0.019 ± 0.043.
“E3 ubiquitin-protein ligase RSP5 P343A, P39940” showed an abundance fitness of 0.013 ± 0.044.
Substance “E3 ubiquitin-protein ligase RSP5 G345E, P39940” has an abundance fitness of -0.312 ± 0.057.
With “E3 ubiquitin-protein ligase RSP5 P334R, P39940” the abundance fitness was -1.03 ± 0.05.
“E3 ubiquitin-protein ligase RSP5 L330R, P39940” gave an abundance fitness of -0.088 ± 0.045.
Work on “E3 ubiquitin-protein ligase RSP5 T358V, P39940” yielded an abundance fitness of -0.729 ± 0.071.
“E3 ubiquitin-protein ligase RSP5 D351P, P39940” gave an abundance fitness of -1.24 ± 0.15.
In the case of “E3 ubiquitin-protein ligase RSP5 F349L, P39940”, the abundance fitness is reported as -0.648 ± 0.055.
For “E3 ubiquitin-protein ligase RSP5 T357S, P39940”, the abundance fitness was -0.1 ± 0.062.
Work on “E3 ubiquitin-protein ligase RSP5 W359Q, P39940” yielded an abundance fitness of -0.278 ± 0.08.
For “E3 ubiquitin-protein ligase RSP5 F341I, P39940”, the abundance fitness was -0.027 ± 0.092.
For “E3 ubiquitin-protein ligase RSP5 D351T, P39940”, the abundance fitness was -0.966 ± 0.073.
In the case of “E3 ubiquitin-protein ligase RSP5 R355V, P39940”, the abundance fitness is reported as -0.425 ± 0.045.
With “E3 ubiquitin-protein ligase RSP5 D351E, P39940” the abundance fitness was -0.488 ± 0.052.
“E3 ubiquitin-protein ligase RSP5 T356L, P39940” showed an abundance fitness of -0.143 ± 0.047.
With “E3 ubiquitin-protein ligase RSP5 S328Y, P39940” the abundance fitness was 0.036 ± 0.098.
For “E3 ubiquitin-protein ligase RSP5 G325Y, P39940”, the abundance fitness was -0.057 ± 0.083.
In the case of “E3 ubiquitin-protein ligase RSP5 G329S, P39940”, the abundance fitness is reported as 0.103 ± 0.054.
Work on “E3 ubiquitin-protein ligase RSP5 T342E, P39940” yielded an abundance fitness of -0.377 ± 0.05.
With “E3 ubiquitin-protein ligase RSP5 S335A, P39940” the abundance fitness was -0.063 ± 0.044.
“E3 ubiquitin-protein ligase RSP5 P334E, P39940” showed an abundance fitness of -0.689 ± 0.056.

— the Human Domainome abundance scans (Beltran et al. 2025)
